Laboratory results: patent US11541128B2, “Multi-drug antibody drug conjugates” (Seagen Inc., priority 2016, dated 2023)

Legend:
CD30(−) U-266 cells = experiment: Binding to CD30(−) cells; details: CD30(−) U-266 cells (not shown)
SU-DHL-16 = experiment: In vitro cytotoxicity, SU-DHL-16; type: cell-based; details: co-administration IC50 vs co-conjugate IC50
Granta-519 = experiment: In vitro cytotoxicity, Granta-519; type: cell-based; details: co-administration IC50 vs co-conjugate IC50
Nalm-6 = experiment: In vitro cytotoxicity, Nalm-6; type: cell-based; details: hBU12 conjugates targeting CD19
RL = experiment: In vitro cytotoxicity, RL; type: cell-based; details: hBU12 conjugates targeting CD19
Raji = experiment: In vitro cytotoxicity, Raji; type: cell-based; details: hBU12 conjugates targeting CD19
WSU-DLCL2 = experiment: In vitro cytotoxicity, WSU-DLCL2; type: cell-based; details: hBU12 conjugates targeting CD19
[1] = system: MCF-7 breast carcinoma cells; experiment: Colony forming assay, MCF-7; type: cell-based; details: ADC 100 ng/mL for 48 hours, recovery 7-9 days, N=2
Procedure: This analysis was conducted on either JHH-7 (hepatocarcinoma cells) or MCF-7 (LIV-1positive) cells using antigen specific dual-auristatin ADCs. […] A dual-auristatin ADC targeting the LIV-1antigen on MCF-7 cells also allowed for less outgrowth of resistant colonies compared to single-drug ADCs.
For testing of LIV-1 targeted ADCs, MCF-7 breast carcinoma cells (ATCC) were plated in 6-well tissue culture plates at a density of 10,000 cells per well. ADCs were added to cells at a concentration of 100 ng/mL for 48 hours. At this time, media was removed and cells were washed with PBS. Fresh media was added and the cells allowed to recover for 7-9 days. Cells were then washed with PBS, fixed with 3.7% paraformaldehyde, stained with 0.5% crystal violet, and then counted. Each condition was conducted with N=2.

cAC10: Chimeric anti-CD30 monoclonal antibody, naked antibody
binding to CD30(−) U-266 cells (CD30(−) U-266 cells): Neither cAC10 or cAC10-4-(3-1) bound

B1: hBU12 Co-Conjugate (conjugate, chains of the INN, looked up)
VH: QVQLQESGPGLVKPSQTLSLTCTVSGGSISTSGMGVGWIRQHPGKGLEWIGHIWWDDDKRYNPALKSRVTISVDTSKNQFSLKLSSVTAADTAVYYCARMELWSYYFDYWGQGTLVTVSS
VL: EIVLTQSPATLSLSPGERATLSCSASSSVSYMHWYQQKPGQAPRLLIYDTSKLASGIPARFSGSGSGTDFTLTISSLEPEDVAVYYCFQGSVYPFTFGQGTKLEIK
modifications: co-conjugate with two drug payloads
Fold difference (SU-DHL-16): 2.5
Fold difference (Granta-519): 41.5

B2: hBU12-Linking Assembly Unit Aa-Comp. Aa (8) (conjugate, chains of the INN, looked up)
VH: B1 VH
VL: B1 VL
modifications: linker assembly with compound Aa
IC50 (Nalm-6): 8 ng/mL
IC50 (RL): 4 ng/mL

B3: hBU12-Linking Assembly Unit Aa-Comp. Aa (16) (conjugate, chains of the INN, looked up)
VH: B1 VH
VL: B1 VL
modifications: Linking Assembly Unit Aa-Compound Aa drug conjugate
IC50 (Raji): 2.1 ng/mL
IC50 (WSU-DLCL2): 1.5 ng/mL

B4: hBU12-Linking Assembly Unit Aa-Comp. Ab (16) (conjugate, chains of the INN, looked up)
VH: B1 VH
VL: B1 VL
modifications: linker assembly with compound Ab
IC50 (Raji): 6.9 ng/mL
IC50 (WSU-DLCL2): 8.6 ng/mL

B5: hBU12-Linking Assembly Unit Aa-Comp. Ab (8) (conjugate, chains of the INN, looked up)
VH: B1 VH
VL: B1 VL
modifications: linker assembly with compound Ab
IC50 (Nalm-6): 5 ng/mL
IC50 (RL): 340 ng/mL

B6: hBU12-Linking Assembly Unit Aa-Comp. Ah (8) (conjugate, chains of the INN, looked up)
VH: B1 VH
VL: B1 VL
modifications: linker assembly with compound Ah
IC50 (Nalm-6): 9 ng/mL
IC50 (RL): 60 ng/mL
IC50 (Raji): 97 ng/mL
IC50 (WSU-DLCL2): 7 ng/mL

B7: hBU12-Linking Assembly Unit Aa-Comp. Ab (8) Comp. Aa (8) (conjugate, chains of the INN, looked up)
VH: B1 VH
VL: B1 VL
modifications: linker assembly with compounds Ab and Aa
IC50 (Nalm-6): 2 ng/mL
IC50 (RL): 1 ng/mL
IC50 (Raji): 1.6 ng/mL

B8: hBU12-Linking Assembly Unit Aa-Comp. Aa (8)-Comp. Ah (8) (conjugate, chains of the INN, looked up)
VH: B1 VH
VL: B1 VL
modifications: linker assembly with compounds Aa and Ah
IC50 (RL): 2 ng/mL
IC50 (Raji): 5 ng/mL
IC50 (WSU-DLCL2): 2 ng/mL

B9: hLIV22-Linking Assembly Unit Aa (8)-MMAE (16) (conjugate, chains of the INN, looked up)
VH: QVQLVQSGAEVKKPGASVKVSCKASGLTIEDYYMHWVRQAPGQGLEWMGWIDPENGDTEYGPKFQGRVTMTRDTSINTAYMELSRLRSDDTAVYYCAVHNAHYGTWFAYWGQGTLVTVSS
VL: DVVMTQSPLSLPVTLGQPASISCRSSQSLLHSSGNTYLEWYQQRPGQSPRPLIYKISTRFSGVPDRFSGSGSGTDFTLKISRVEAEDVGVYYCFQGSHVPYTFGGGTKVEIK
modifications: Linking Assembly Unit Aa-MMAE conjugate
Colony forming units [1]: 42.5

B10: hLIV22-Linking Assembly Unit Aa (8)-Comp. Aa (8)-MMAE (8) (conjugate, chains of the INN, looked up)
VH: B9 VH
VL: B9 VL
modifications: Linking Assembly Unit Aa, Compound Aa, MMAE conjugate
Colony forming units [1]: 19.5
